Experimental findings from patent US20230265152A1, “GLP-1R AGONIST / FGF21 FUSION PROTEINS” (SANOFI, priority 2020, published 2023) are described below.

Series [1] in a line: Thermal shift assay (DSF, Sypro Orange). Type of series: physicochemical. The settings on record: Data generated via DSF. From the text: In addition, for some proteins, a thermal shift assay was applied to analyze thermostability in imitation of differential scanning fluorimetry (DSF or ThermoFluor™) assays (Ahmad S. et al. (2012) Protein Science 21: 433-446; Pantoliano et al. (2001) J. Biomol. Screen 6: 429-440; Niesen et al. (2007) Nat. Protoc. 2: 2212-21). This assay is based on the observation that hydrophobic fluorescent dyes, such as Sypro™ Orange (Life Technologies, cat. No. S6651), increase their fluorescence when they bind to hydrophobic patches on a protein.
Proteins were tested by mixing a solution of each protein in PBS (Gibco) with a 160x solution of Sypro™ Orange (diluted in water from a 5000X DMSO stock as provided by the supplier). The sample volume was adjusted to 20 µL with PBS. Typical conditions contained 0.8 mg/mL protein and 8x Sypro™ Orange in the final mixture, but protein concentrations could be varied between 0.4 mg/mL and 1.2 mg/mL. Samples were dispensed in 96-well PCR plates (BioRad Semi-Skirt 96 white) and shortly centrifuged to remove air bubbles. […] For excitation and quantification of fluorescence, filters for wavelengths of 485 nm and 575 nm were chosen. […] In curves of fluorescence intensity against temperature, the inflection point was chosen as the measure for the melting temperature (Tm).
A general note: In DSF a fluorescence change marks the thermal transition of the protein.

The nature of series [2]: Pharmacokinetics after single subcutaneous administration in mouse. It is filed as in vivo, female C57Bl/6 mice. The settings on record: 0.3 mg/kg s.c.; assay FGF21 intact. The protocol: Plasma concentrations and pharmacokinetic parameters of GLP-1RA/FGF21 Fc fusion proteins were determined after single subcutaneous administration of 0.3 mg/kg in solution to female C57Bl/6 mice or male Cynomolgus monkeys using three different methods. Blood samples were obtained at time points from 30 minutes to 168 hours after dosing.
Plasma samples were analyzed for the intact FGF21 part of the fusion proteins with an ELISA kit (F1231-K01, Eagle Biosciences, USA). The assay utilized the two-site sandwich technique with two selected antibodies that bound to different epitopes of human intact FGF21. […] For the detection of the immunocomplex, the well was then incubated with a substrate solution in a timed reaction and then measured in a spectrophotometric microplate reader. […]
The concentration of the full-length GLP-1RA/FGF21 Fc fusion proteins in plasma were determined utilizing an ELISA method. […] Following washing 3 times with 300 µL PBS-T 150 µL read buffer was added to the wells.
Plasma samples were analyzed for the intact GLP-1 part of the fusion proteins with a GLP-1 ELISA method. […] Following washing 3 times with 300 µL PBS-T, 150 µL read buffer was added to the wells.
The pharmacokinetic parameters were calculated by the program WinNonlin 6.4 using a non-compartmental model and linear trapezoidal interpolation calculation. […]

Marks after values point to notes of the source that are not given here.

B1: 252 (protein)
chain: GHPIPDSSPLLQFGGQVRQRYLYTDDAQQTEAHLEIREDGTVGGAADQSPESLLQLKALKPGVIQILGVKTSRFLCQRPDGALYGSLHFDPEACSFRELLLEDGYNVYQSEAHGLPLHLPGNKSPHRDPAPRGPARFLPLPGLPPAPPEPPGILAPQPPDVGSSDPLSMVGPSQGRSPSYAS
modifications: G-FGF21
For B1, the Tm in series [1] is 43.1 * °C. The t½ mouse in series [2] was 42 min.
